{"source": "paper PMC2680336", "target": "Ect2 (UniProt Q9H8V3)", "test": "anti-myc IP, anti-FLAG blot", "details": "reference: wild-type FLAG-HsCYK-4; sites S157", "data": [{"substance": "HsCYK-4 (MgcRacGAP) (from UniProt Q9H0H5) S157A", "values": [{"measurement": "binding against the reference", "result": "weaker"}]}]}
